Measured values reported in patent publication US20200148778A1.
Like-named read-outs stand apart in the source and are kept apart here.

Experiments:
[1] = target: His-tagged human CD40 (h-CD40-his) recombinant protein (human) (UniProt P25942); experiment: ELISA, human CD40-his coated
[2] = target: human CD40 on HEK293 cells stably transfected with the human CD40 gene (HEK-Blue CD40L cells) (human) (UniProt P25942); experiment: HEK293-CD40 cells binding; method not described
[3] = target: Fc-tagged human CD40 (h-CD40-Fc) recombinant protein (human) (UniProt P25942); experiment: hCD40/hCD40L blocking ELISA, CD40L as competitor
Sequence of Fc-tagged human CD40 (h-CD40-Fc) recombinant protein (human) (P25942 21-193 limits assumed): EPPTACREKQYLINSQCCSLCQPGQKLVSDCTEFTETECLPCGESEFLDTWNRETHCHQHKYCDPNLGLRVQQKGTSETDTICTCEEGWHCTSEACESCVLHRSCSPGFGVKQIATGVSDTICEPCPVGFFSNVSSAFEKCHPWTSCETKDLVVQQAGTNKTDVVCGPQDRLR

[4] = target: Fc-tagged human CD40 (h-CD40-Fc) recombinant protein (human) (UniProt P25942); experiment: hCD40/hCD40L blocking ELISA, CD40L as competitor; remark: listed apart in the source
[5] = target: His-tagged rhesus CD40 (rhesus-CD40-his) recombinant protein (rhesus) (UniProt F6SNI1); experiment: ELISA, rhesus CD40-his coated
Sequence of His-tagged rhesus CD40 (rhesus-CD40-his) recombinant protein (rhesus) (F6SNI1 entry or part of it): as the sequence (P25942 21-193 limits assumed) above, with G43S, H56R, W89L, T92M, A95S, L101P, S106L, H142R, L172Q counted along it

[6] = target: His-tagged human CD40 (h-CD40-his) recombinant protein (human) (UniProt P25942); experiment: ELISA, human CD40-his coated; remark: listed apart in the source
[7] = target: His-tagged human CD40 (h-CD40-his) recombinant protein (human) (UniProt P25942); experiment: Biacore X100, antibody captured by anti-human antibody on CM5 chip, CD40 antigen as analyte, 1:1 model
[8] = target: His-tagged human CD40 (h-CD40-his) recombinant protein (human) (UniProt P25942); experiment: as above; remark: listed apart in the source
[9] = target: human CD40 on HEK293 cells stably transfected with the human CD40 gene (HEK-Blue CD40L cells) (human) (UniProt P25942); experiment: HEK293-CD40 cells binding; method not described; remark: listed apart in the source

Sequence of His-tagged human CD40 (h-CD40-his) recombinant protein (human) (P25942 21-193 limits assumed): as the sequence (P25942 21-193 limits assumed) above
Sequence of human CD40 on HEK293 cells stably transfected with the human CD40 gene (HEK-Blue CD40L cells) (human) (P25942 21-277): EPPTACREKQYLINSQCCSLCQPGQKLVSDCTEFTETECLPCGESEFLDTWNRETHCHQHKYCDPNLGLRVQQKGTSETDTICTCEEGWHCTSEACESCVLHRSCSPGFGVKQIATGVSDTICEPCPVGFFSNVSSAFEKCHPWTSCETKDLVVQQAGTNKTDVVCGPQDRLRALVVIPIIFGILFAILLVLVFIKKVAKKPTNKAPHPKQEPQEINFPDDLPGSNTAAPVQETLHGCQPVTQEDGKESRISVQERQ

B1: Alligator reference (hIgG1) (antibody, INN chains, looked up, V domains shown)
VH: EVQLLESGGGLVQPGGSLRLSCAASGFTFSTYGMHWVRQAPGKGLEWLSYISGGSSYIFYADSVRGRFTISRDNSENALYLQMNSLRAEDTAVYYCARILRGGSGMDLWGQGTLVTVSS
VL: QSVLTQPPSASGTPGQRVTISCTGSSSNIGAGYNVYWYQQLPGTAPKLLIYGNINRPSGVPDRFSGSKSGTSASLAISGLRSEDEADYYCAAWDKSISGLVFGGGTKLTVL
In the case of B1, the EC50 [1] is reported as 0.00329 mg/L, the EC50 [2] is reported as 1.36 mg/L and the IC50 [3] is reported as 0.723 mg/L. The IC50 [4] was 0.647 mg/L, the EC50 [5] was 0.00124 mg/L and the EC50 [6] was 0.00129 mg/L. The Kd [7] was 0.0659 µM, the Kd [8] was 0.166 µM and the EC50 [9] was 0.397 mg/L.
